Assay results taken from the supplement of paper PMC7877785.
± gives the uncertainty stated by the source.

Test: self-splicing fitness, log relative to wild type (ln ratio); higher = more splicing; Tetrahymena group I intron in knt gene, E. coli kanamycin selection, DiMSum; sequences stand for … in CUCUCU…GGAGGGAAAAGUUAUCAGGCAUGCACCUGGUAGCUAGUCUUUAAACCAAUAGAUUGCAUCGGUUUAAAAGGCAAGACCGUCAAAUUGCGGGAAAGGGGUCAACAGCCGUUCAGUACCAAGUCUCAGGGGAAACUUUGAGAUGGCCUUGCAAAGGGUAUGGUAAUAAGCUGACGGACAUGGUCCUAACCACGCAGCCAAGUCCUAAGUCAACAGAUCUUCUGUUGAUAUGGAUGCAGUUCACAGACUAAAUGUCGGUCGGGGAAGAUGUAUUCUUCUCAUAAGAUAUAGUCGGACCUCUCCUUAAUGGGAGCUAGCGGAUGAAGUGAUGCAACACUGGAGCCGCUGGGAACUAAUUUGUAUGCGAAAGUAUAUUGAUUAGUUUUGGAGUACUCGUGGUCG
How it was run: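 Library with all eight P1ex-region intron nucleotides randomised, intron inside the knt kanamycin-resistance gene on pET-22b(+), in E. coli BL21(DE3). Cells grew overnight at 37°C or 30°C on LB agar with or without 25 μg/mL kanamycin (plus 100 μg/mL carbenicillin, 50 μM IPTG, 0.2% rhamnose), in six replicate transformations. Pooled colonies were amplicon-sequenced on Illumina HiSeq 2500. DiMSum fitness is the error-weighted combination of wild-type-normalised replicate fold changes, kanamycin versus none.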

| Sequence | self-splicing fitness (ln) (30 °C) | self-splicing fitness (ln) (37 °C) |
| --- | --- | --- |
| GUACAGCAAUAUUACGUUCG | -1.45 ± 0.061 | -0.316 ± 0.079 |
| UACGAGCAAUAUUACGGAAA | – | -1.29 ± 0.32 |
| UGUAAGCAAUAUUACGUUAU | -3.54 ± 0.22 | -2.73 ± 0.26 |
| CCACAGCAAUAUUACGGGUC | -3.86 ± 0.18 | -2.89 ± 0.17 |
| AAUCAGCAAUAUUACGCAAA | -0.0279 ± 0.067 | -0.117 ± 0.078 |
| GGUUAGCAAUAUUACGCCUG | -2.89 ± 0.38 | -2.7 ± 0.48 |
| CUUGAGCAAUAUUACGGCAC | -2.5 ± 0.34 | -2.71 ± 0.39 |
| AUCGAGCAAUAUUACGACCG | – | -1.63 ± 0.36 |
| AGCGAGCAAUAUUACGUACA | -2.08 ± 0.31 | -1.89 ± 0.2 |
| CUUCAGCAAUAUUACGUGUA | -3.11 ± 0.13 | -3.22 ± 0.21 |
| CUUCAGCAAUAUUACGAAGC | -2.1 ± 0.17 | -2.43 ± 0.48 |
| UAGGAGCAAUAUUACGAAUC | – | -2.02 ± 0.26 |
| GAGCAGCAAUAUUACGGCUA | -0.634 ± 0.1 | -0.0591 ± 0.15 |
| UGCCAGCAAUAUUACGUCAA | -1.93 ± 0.11 | -1.08 ± 0.093 |
| UGAGAGCAAUAUUACGAUGA | – | -2.48 ± 0.3 |
| AAGAAGCAAUAUUACGUUAA | -2.77 ± 0.16 | -0.841 ± 0.11 |
| CCUGAGCAAUAUUACGUCGG | -4.36 ± 0.36 | -2.47 ± 0.23 |
| UUAGAGCAAUAUUACGCAUU | -3.24 ± 0.38 | – |
| CGAAAGCAAUAUUACGCACG | -3.27 ± 0.17 | -2.03 ± 0.15 |
| UCAAAGCAAUAUUACGGCAG | -1.24 ± 0.12 | 0.177 ± 0.16 |
| AGACAGCAAUAUUACGCCGU | -3.43 ± 0.21 | -2.91 ± 0.29 |
| ACUUAGCAAUAUUACGGUAC | -3.36 ± 0.21 | -3.57 ± 0.42 |
| CCUCAGCAAUAUUACGACCA | -2.93 ± 0.34 | -1.99 ± 0.46 |
| AUGAAGCAAUAUUACGCAAA | -2.25 ± 0.17 | -1.31 ± 0.17 |
| GACUAGCAAUAUUACGGGGU | -4.18 ± 0.17 | -2.91 ± 0.15 |
| UGCUAGCAAUAUUACGUAAA | -1.9 ± 0.094 | -1.6 ± 0.13 |

| Sequence | self-splicing fitness (ln) (30 °C) | self-splicing fitness (ln) (37 °C) |
| --- | --- | --- |
| CAAUAGCAAUAUUACGCAGA | -3.78 ± 0.42 | -2.14 ± 0.18 |
| AGGCAGCAAUAUUACGAGAG | -3.49 ± 0.15 | -2.79 ± 0.15 |
| UGCUAGCAAUAUUACGUCAC | -3.62 ± 0.19 | -2.74 ± 0.22 |
| GCCCAGCAAUAUUACGACAC | -1.64 ± 0.081 | -0.294 ± 0.11 |
| GCCCAGCAAUAUUACGGUUG | -2.99 ± 0.12 | -1.95 ± 0.11 |
| GCAGAGCAAUAUUACGUUUA | -2.56 ± 0.3 | – |
| UAAUAGCAAUAUUACGGUCU | -2.75 ± 0.16 | -2.49 ± 0.16 |
| UGGAAGCAAUAUUACGUCCU | -0.91 ± 0.2 | -0.584 ± 0.21 |
| UCAAAGCAAUAUUACGGGAA | -1.5 ± 0.15 | -0.928 ± 0.16 |
| GUGUAGCAAUAUUACGAUCA | -0.818 ± 0.13 | -0.543 ± 0.14 |
| CCAAAGCAAUAUUACGCCAG | -1.3 ± 0.1 | -0.0837 ± 0.13 |
| AGGCAGCAAUAUUACGCUGA | -2.21 ± 0.13 | -1.84 ± 0.21 |
| GCACAGCAAUAUUACGUAGA | -0.215 ± 0.049 | 0.62 ± 0.066 |
| AUGCAGCAAUAUUACGCCGG | -1.72 ± 0.15 | -0.877 ± 0.21 |
| GUAAAGCAAUAUUACGUCGG | -2.85 ± 0.12 | -1.05 ± 0.13 |
| UAGAAGCAAUAUUACGGCGC | -1.94 ± 0.19 | -0.275 ± 0.3 |
| CUUAAGCAAUAUUACGAGGC | -3.19 ± 0.32 | -2.53 ± 0.41 |
| CAGCAGCAAUAUUACGAGGG | -3.15 ± 0.097 | -1.12 ± 0.093 |
| UGCGAGCAAUAUUACGAGAU | -2.4 ± 0.33 | -3.21 ± 0.35 |
| GGAAAGCAAUAUUACGAGUG | -3.38 ± 0.12 | -1.85 ± 0.1 |
| UCGUAGCAAUAUUACGAGUA | -2.71 ± 0.18 | -1.21 ± 0.13 |
| AUUGAGCAAUAUUACGGAAU | -1.59 ± 0.17 | -1.28 ± 0.2 |
| GGAAAGCAAUAUUACGCUGU | -1.07 ± 0.11 | -0.375 ± 0.17 |
| GAUGAGCAAUAUUACGAGCG | -2.62 ± 0.44 | – |
| AUCGAGCAAUAUUACGGCUC | -1.39 ± 0.36 | -1.56 ± 0.49 |
| AAUAAGCAAUAUUACGCCCG | -1.39 ± 0.15 | -0.203 ± 0.18 |

| Sequence | self-splicing fitness (ln) (30 °C) | self-splicing fitness (ln) (37 °C) |
| --- | --- | --- |
| CAGUAGCAAUAUUACGACCU | -0.458 ± 0.15 | -0.391 ± 0.2 |
| AAUAAGCAAUAUUACGAUAU | -1.71 ± 0.11 | -0.747 ± 0.13 |
| CACAAGCAAUAUUACGGGUU | -2.26 ± 0.068 | -1.52 ± 0.083 |
| CUUCAGCAAUAUUACGCGGA | -1.83 ± 0.21 | -2.74 ± 0.3 |
| AGGUAGCAAUAUUACGUGUA | -2.265 ± 0.017 | -1.31 ± 0.033 |
| CUUAAGCAAUAUUACGUUCG | -1.05 ± 0.075 | -0.0528 ± 0.099 |
| ACGGAGCAAUAUUACGUUGG | -3.62 ± 0.23 | -2.05 ± 0.17 |
| CCUCAGCAAUAUUACGGGUU | -4.07 ± 0.21 | -2.02 ± 0.15 |
| UCCGAGCAAUAUUACGCACG | -3.01 ± 0.43 | – |
| CGGGAGCAAUAUUACGUGCA | -3.02 ± 0.27 | -2.29 ± 0.22 |
| UUAUAGCAAUAUUACGAGUU | – | -1.96 ± 0.2 |
| AGGUAGCAAUAUUACGACCA | 0.0772 ± 0.018 | 0.199 ± 0.038 |
| CCUGAGCAAUAUUACGGGCC | -3.87 ± 0.31 | -2.45 ± 0.23 |
| CCUGAGCAAUAUUACGUUCU | -3.63 ± 0.25 | -2.43 ± 0.25 |
| UUCAAGCAAUAUUACGAAAU | -3.5 ± 0.25 | -1.43 ± 0.19 |
| ACAUAGCAAUAUUACGUUCC | -2.65 ± 0.23 | -2.1 ± 0.34 |
| GGUGAGCAAUAUUACGAGCA | -0.652 ± 0.23 | -1.1 ± 0.29 |
| CCAGAGCAAUAUUACGUGCA | -1.88 ± 0.22 | -2.54 ± 0.4 |
| GAUAAGCAAUAUUACGCUGA | – | -1.31 ± 0.22 |
| GUCAAGCAAUAUUACGGGGU | -5.42 ± 0.25 | -4.15 ± 0.19 |
| UCUUAGCAAUAUUACGUUGC | -3.46 ± 0.47 | – |
| UCUAAGCAAUAUUACGGCAG | -1.35 ± 0.13 | -0.508 ± 0.14 |
| CCCCAGCAAUAUUACGCGAG | -3.18 ± 0.15 | -3.14 ± 0.31 |
| UCCAAGCAAUAUUACGCCUA | -0.968 ± 0.12 | 0.0562 ± 0.1 |
| CGAAAGCAAUAUUACGUGCU | -3.73 ± 0.18 | -2.41 ± 0.18 |
| GCGCAGCAAUAUUACGUAAG | -0.982 ± 0.066 | -0.943 ± 0.1 |
